T1: human CD22 (human, UniProt P20273 20-687, limits assumed)
T1 construct: also called SIGLEC-2; human CD22 protein
T1 sequence (looked up): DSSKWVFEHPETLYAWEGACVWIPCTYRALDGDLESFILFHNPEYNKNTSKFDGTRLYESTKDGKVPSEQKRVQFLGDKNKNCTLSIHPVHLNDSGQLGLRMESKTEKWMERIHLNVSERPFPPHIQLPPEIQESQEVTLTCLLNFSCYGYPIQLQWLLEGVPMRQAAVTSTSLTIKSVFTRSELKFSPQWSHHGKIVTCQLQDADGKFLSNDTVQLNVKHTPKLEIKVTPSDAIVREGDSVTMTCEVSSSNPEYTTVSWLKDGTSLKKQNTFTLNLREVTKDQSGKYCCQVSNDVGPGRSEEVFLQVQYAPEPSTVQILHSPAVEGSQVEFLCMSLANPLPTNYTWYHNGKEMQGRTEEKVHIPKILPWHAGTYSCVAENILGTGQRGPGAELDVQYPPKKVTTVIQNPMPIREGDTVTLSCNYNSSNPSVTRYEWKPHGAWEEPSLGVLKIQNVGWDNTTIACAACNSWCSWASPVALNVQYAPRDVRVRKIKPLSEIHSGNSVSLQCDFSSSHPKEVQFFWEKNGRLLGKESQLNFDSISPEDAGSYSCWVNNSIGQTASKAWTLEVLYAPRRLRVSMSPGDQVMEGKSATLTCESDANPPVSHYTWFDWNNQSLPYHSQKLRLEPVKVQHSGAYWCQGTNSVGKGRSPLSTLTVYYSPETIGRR

B1: anti-CD22 heavy chain-only antibody Clone ID 335219 (antibody, V domains shown)
VH: QLQLQESGPGLVKPSETLSLTCTVSGGSISSSSYYWGWIRQPPGKGLEWIGSIYYSGVTYYNPSLKNRVTISVDTSKNQFSLKLSSVTAADTAVYYCTREDSSNWRSRGQGTLVTVSS
notes: Heavy chain-only antibody (UniAb), no light chain
B2: anti-CD22 heavy chain-only antibody Clone ID 335273 (antibody, V domains shown)
VH: QLQLQESGPGLVKPSETLSLTCTVSGGSISSSSYYWGWIRQPPGKGLEWIGSIYYSGSTYYNPSLKSRVTISVDTSKNQFSLKLSSVTAADTAVYYCTREDSSSWRSRGQGTLVTVSS
notes: as for B1
B3: anti-CD22 heavy chain-only antibody Clone ID 335242 (antibody, V domains shown)
VH: QLQLQESGPGLVKPSETLSLTCTVSGGSISSSSYYWGWIRQPPGKGLEWIGHIYYSGATYYNPSLKNRVTISVDTSRNQFSLNLSSVTAADTAVYYCTREDSSNWRSRGQGTLVTVSS
notes: as for B1
B4: anti-CD22 heavy chain-only antibody Clone ID 335266 (antibody, V domains shown)
VH: QLQLQESGPGLVRPSETLSLTCTVSGGSISSSSYYWGWIRQPPGKGLEWIGSIYYSGSTYYNPSLKSRVTISVDTSKNQFSLKLSSVTAADTAVYYCTREDSSSWRSRGQGTLVTVSS
notes: as for B1
B5: anti-CD22 heavy chain-only antibody Clone ID 335271 (antibody, V domains shown)
VH: QLQLQESGPGLVKPSETLSLTCTVSGDSISSGDYYWGWIRHPPGKGLEWIGHIYYSGATYYNPSLKNRVTISVDTSKNQFSLKLSSVTAADTAVYYCTREDSSSWRSRGQGTLVTVSS
notes: as for B1
B6: anti-CD22 heavy chain-only antibody Clone ID 335233 (antibody, V domains shown)
VH: QLQLQESGPGLVKPSETLSLTCTVSGDSISSGDYYWGWIRQPPGKGLEWIGSIYYSGSTYYNPSLKSRVTISVDTSKNQFSLKLSSVTAADTAVYYCTREDSSNWRSRGQGTLVTVSS
notes: as for B1
B7: anti-CD22 heavy chain-only antibody Clone ID 335234 (antibody, V domains shown)
VH: QLQLQESGPGLVKPSETLSLTCTVSGDSISSGDYYWGWIRQPPGKGLEWIGNIYYSGATYYNPSLKNRVTISVDTSKNQFSLKLSSVTAADTAVYYCTREDSSNWRSRGQGTLVTVSS
notes: as for B1
B8: anti-CD22 heavy chain-only antibody Clone ID 335293 (antibody, V domains shown)
VH: QLQLQESGPGLVKPSETLSLTCTVSGDSISSGDYYWGWIRQPPGKGLEWIGHIYYSGATYYNPSLKNRVTISVDTSRNQFSLKLSSVTAADTAVYYCTREDSSSWRSRGQGTLVTVSS
notes: as for B1
B9: anti-CD22 heavy chain-only antibody Clone ID 335230 (antibody, V domains shown)
VH: QLQLQESDPGLVKPSETLSLTCTVSGGSISSSSHYWGWIRQPPGKGLEWIGHIYYSGATYYNPSLKNRVTISVDTSRNQFSLNLSSVTAADTAVYYCTREDSSNWRSRGQGTLVTVSS
notes: as for B1
B10: anti-CD22 heavy chain-only antibody Clone ID 335224 (antibody, V domains shown)
VH: QLQLQESGPGLVKPSETLSLTCTVSGDSISSGDYYWGWIRQPPGKGLEWIGSIYYTGSTYYNPSLKSRVTISVDTSKNQFSLKLSSVTAADTAVYYCTREDSSNWRSRGQGTLVTVSS
notes: as for B1
B11: anti-CD22 heavy chain-only antibody Clone ID 335261 (antibody, V domains shown)
VH: QLQLQESGPGLVKPSETLSLTCTVSGDSISSGDYYWGWIRQPPGKGLEWIGHIYYSGATYYNPSLENRVTISVDTSKNQFSLKLSSVTAADTAVYYCTREDSSSWRSRGQGTLVTVSS
notes: as for B1
B12: anti-CD22 heavy chain-only antibody Clone ID 335232 (antibody, V domains shown)
VH: QLQLQESGPGLVKPSETLSLTCTVSGDSISSGDYYWGWIRQPPGKGLEWIGHIYYSGATYYNPSLKNRVTISVDTSRNQSSLNLSSVTAADTAVYYCTREDSSNWRSRGQGTLVTVSS
notes: as for B1
B13: anti-CD22 heavy chain-only antibody Clone ID 335260 (antibody, V domains shown)
VH: QLQLQESGPGLVKPSETLSLTCTVSGDSISSGDYYWGWIRQPPGKGLEWIGHIYYSGVTYYNPSLKNRVTISVDTSRNQFSLNLSSVTAADTAVYYCTREDSSSWRSRGQGTLVTVSS
notes: as for B1
B14: anti-CD22 heavy chain-only antibody Clone ID 335283 (antibody, V domains shown)
VH: QLQLQESGPGLVKPSETLSLTCTVSGGSISSSSYYWGWIRQPPGKGLEWIGSIYYSGATYYNPSLKNRVTISVDTSKNQFSLKLSSVTAADTAVYYCTREDSSSWRSRGQGTLVTVSS
notes: as for B1
B15: anti-CD22 heavy chain-only antibody Clone ID 335236 (antibody, V domains shown)
VH: QLQLQESGPGLVKPSETLSLTCTVSGGSISSSSYYWGWIRQPPGKGLEWIGSIYYSGSTYYNPSLKSRVTISVDTSKNQFSLKLSSVTAADTAVYYCTREDSSNWRSRGQGTLVTVSS
notes: as for B1
B16: anti-CD22 heavy chain-only antibody Clone ID 335226 (antibody, V domains shown)
VH: QLQLQESGPGLVKPSETLSLTCTVSGDSISSSSYYWGWIRQPPGKGLEWIGSIYYSGSTYYNPSLKSRVTISVDTSKNQFSLKLSSVTAADTAVYYCTREDSSNWRSRGQGTLVTVSS
notes: as for B1
B17: anti-CD22 heavy chain-only antibody Clone ID 335263 (antibody, V domains shown)
VH: QLQLQESGPGLVKPSETLSLTCTVSGGSINDNSHYWGWIRQPPGKGLEWIGHIYYSGATYYNPSLKNRVTISVDTSRNQFSLNLSSVTAADTAVYYCTREDSSSWRSRGQGTLVTVSS
notes: as for B1
B18: anti-CD22 heavy chain-only antibody Clone ID 335245 (antibody, V domains shown)
VH: QLQLQESGPGLVKPSETLSLTCTVSGDSISSGDYYWGWIRQPPGKGLEWIGHIYYSGATYYNPSLKNRVTISVDTSKNQFSLKLSSVTAADTAVYYCTREDSSSWRSRGQGTLVTVSS
notes: as for B1
B19: anti-CD22 heavy chain-only antibody Clone ID 335274 (antibody, V domains shown)
VH: QLQLQESGPGLVKPSETLSLTCTVSGGSISSSSYYWGWIRQPPGKGLEWIGSIYYSGSTYYNPSLKSRVTISVDTSRNQFSLNLSSVTAADTAVYYCTREDSSSWRSRGQGTLVTVSS
notes: as for B1
B20: anti-CD22 heavy chain-only antibody Clone ID 335220 (antibody, V domains shown)
VH: QLQLQESGPGLVKPSETLSLTCTVSGGSISSSSYYWGWIRQPPGKGLEWIGSIYYSGSTYYNPSLKNRVTISVDTSKNQFSLKLSSVTAADTAVYYCTREDSSNWRSRGQGTLVTVSS
notes: as for B1
B21: anti-CD22 heavy chain-only antibody Clone ID 335285 (antibody, V domains shown)
VH: QLQLQESGPGLVKPSETLSLTCTVSGGSISSSSYYWGWIRQPPGKGLEWIGSIYYSGVTYYNPSLKNRVTISVDTSKNQFSLKLSSVTAADTAVYYCTREDSSSWRSRGQGTLVTVSS
notes: as for B1
B22: anti-CD22 heavy chain-only antibody Clone ID 335244 (antibody, V domains shown)
VH: QLQLQESGPGLVKPSETLSLTCTVSGDSISSGDYYWGWIRQPPGKGLEWIGHIYYSGATYYNPSLKNRVTISVDTSRNQFSLNLSSVTAADTAVYYCTREDSSSWRSRGQGTLVTVSS
notes: as for B1
B23: anti-CD22 heavy chain-only antibody Clone ID 335254 (antibody, V domains shown)
VH: QLQLQESGPGLVKPSETLSLTCTVSGDSISSGDYYWGWIRQPPGKGLEWIGHIYYSGVTYYNPSLKNRVTISVDTSKNQFSLKLSSVTAADTAVYYCTREDSSSWRSRGQGTLVTVSS
notes: as for B1

What follows are binders tested against T1, human CD22 (assay: ELISA protein and cell-binding assays).

Binding result, binds:
B1
B2
B3
B4
B5
B6
B7
B8
B9
B10
B11
B12
B13
B14
B15
B16
B17
B18
B19
B20
B21
B22
B23

From patent publication US20210047402A1 (TENEOBIO, published 2021)
